Legend:
[1] = molecular target: Myc-GST融合蛋白 (Myc标签与谷胱甘肽融合的蛋白); test: indirect ELISA, Myc-GST coated at 5 μg/mL, HRP anti-His secondary; heat test at 70℃
[2] = molecular target: Myc-GST融合蛋白 (Myc标签与谷胱甘肽融合的蛋白); test: indirect ELISA, Myc-GST coated at 5 μg/mL, HRP anti-His secondary; heat test at 80℃
[3] = molecular target: Myc-GST融合蛋白 (Myc标签与谷胱甘肽融合的蛋白); test: indirect ELISA, Myc-GST coated at 5 μg/mL, HRP anti-His secondary; heat test at 90℃

OD450 [1]: 1.4 OD450
OD450 [2]: 1.2 OD450
OD450 [3]: 1.1 OD450
B1: 抗c-Myc标签单域重链抗体 (anti-c-Myc tag single-domain heavy-chain antibody, SEQ ID NO.:1) (VHH, not shown: small tags and cut ends)
VHH: QLQLVESGGGLVQAGGSLRLSCAVSGFTFSANAMSWVRQAPGKGPEWVSSINRGGASAEYADSVKGRFTISRDDAKNTLYLQMNSLKPEDTALYYCARGNYRGSYFNGPRTYWGRGTQVTVSP
